Assay results: patent publication US20140348819A1, “Methods of Treating Cancer” (Dana-Farber Cancer Institute, Inc., priority 2011, published 2014)

Test system: six V600E BRAF melanoma cell lines
Test: Screening of recombinant RTK ligands for ability to confer resistance to BRAFi (PLX4720) or MEKi (PD184352) (Table 4)
Assay type: cell-based, human
Parameters: ability of recombinant RTK ligand to confer resistance / ability of recombinant RTK ligand to confer resistance (screening value): scale not given here
How it was run: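 Six V600E BRAF melanoma lines treated with PLX4720 or PD184352 after addition of 22 recombinant RTK ligands, scored for drug resistance. Activation of selected RTKs confirmed by western blotting and high-throughput tyrosine kinase phosphorylation profiling.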

B1: flt-3 ligand (FL) (protein, UniProt P49771 27-235, looked up)
Fms-related tyrosine kinase 3 …: TQDCSFQHSPISSDFAVKIRELSDYLLQDYPVTVASNLQDEELCGGLWRLVLAQRWMERLKTVAGSKMQGLLERVNTEIHFVTKCAFQPPPSCLRFVQTNISRLLQETSEQLVALKPWITRQNFSRCLELQCQPDSSTLPPPWSPRPLEATAPTAPQPPLLLLLLLPVGLLLLAAAWCLHWQRTRRRTPRPGEQVPPVPSPQDLLLVEH
In the case of B1, the “ability of recombinant RTK ligand to confer resistance” value (from here on “ability of recombinant RTK ligand”) (A2058, PD184352 - 1 uM, ligand 0.4 ng/ml) is reported as 1.03, the “ability of recombinant RTK ligand” value (A2058, PD184352 - 1 uM, ligand 1.6 ng/ml) is reported as 0.99 and the “ability of recombinant RTK ligand” value (A2058, PD184352 - 1 uM, ligand 6.25 ng/ml) is reported as 1.00. The “ability of recombinant RTK ligand” value (A2058, PD184352 - 1 uM, ligand 25 ng/ml) was 1.02, the “ability of recombinant RTK ligand” value (A2058, PD184352 - 1 uM, ligand 100 ng/ml) was 0.89 and the “ability of recombinant RTK ligand” value (A2058, PLX4720 - 2 uM, ligand 0.4 ng/ml) was 0.97. For the same molecule, the “ability of recombinant RTK ligand” value (A2058, PLX4720 - 2 uM, ligand 1.6 ng/ml) was 0.98, the “ability of recombinant RTK ligand” value (A2058, PLX4720 - 2 uM, ligand 6.25 ng/ml) was 1.01 and the “ability of recombinant RTK ligand” value (A2058, PLX4720 - 2 uM, ligand 25 ng/ml) was 1.06. The “ability of recombinant RTK ligand” value (A2058, PLX4720 - 2 uM, ligand 100 ng/ml) was 0.93, the “ability of recombinant RTK ligand” value (C32, PD184352 - 1 uM, ligand 0.4 ng/ml) was 1.02 and the “ability of recombinant RTK ligand” value (C32, PD184352 - 1 uM, ligand 1.6 ng/ml) was 1.08. The “ability of recombinant RTK ligand” value (C32, PD184352 - 1 uM, ligand 6.25 ng/ml) was 1.10, the “ability of recombinant RTK ligand” value (C32, PD184352 - 1 uM, ligand 25 ng/ml) was 1.08 and the “ability of recombinant RTK ligand” value (C32, PD184352 - 1 uM, ligand 100 ng/ml) was 1.07. For the same molecule, the “ability of recombinant RTK ligand” value (C32, PLX4720 - 2 uM, ligand 0.4 ng/ml) was 0.99, the “ability of recombinant RTK ligand” value (C32, PLX4720 - 2 uM, ligand 1.6 ng/ml) was 0.97 and the “ability of recombinant RTK ligand” value (C32, PLX4720 - 2 uM, ligand 6.25 ng/ml) was 1.00. The “ability of recombinant RTK ligand” value (C32, PLX4720 - 2 uM, ligand 25 ng/ml) was 0.87, the “ability of recombinant RTK ligand” value (C32, PLX4720 - 2 uM, ligand 100 ng/ml) was 0.97 and the “ability of recombinant RTK ligand” value (Colo 829, PD184352 - 1 uM, ligand 0.4 ng/ml) was 1.07. For the same molecule, the “ability of recombinant RTK ligand” value (Colo 829, PD184352 - 1 uM, ligand 1.6 ng/ml) was 0.98, the “ability of recombinant RTK ligand” value (Colo 829, PD184352 - 1 uM, ligand 6.25 ng/ml) was 0.97 and the “ability of recombinant RTK ligand” value (Colo 829, PD184352 - 1 uM, ligand 25 ng/ml) was 1.05. The “ability of recombinant RTK ligand” value (Colo 829, PD184352 - 1 uM, ligand 100 ng/ml) was 0.97, the “ability of recombinant RTK ligand” value (Colo 829, PLX4720 - 2 uM, ligand 0.4 ng/ml) was 1.08 and the “ability of recombinant RTK ligand” value (Colo 829, PLX4720 - 2 uM, ligand 1.6 ng/ml) was 0.98. The “ability of recombinant RTK ligand” value (Colo 829, PLX4720 - 2 uM, ligand 6.25 ng/ml) was 1.00, the “ability of recombinant RTK ligand” value (Colo 829, PLX4720 - 2 uM, ligand 25 ng/ml) was 1.05 and the “ability of recombinant RTK ligand” value (Colo 829, PLX4720 - 2 uM, ligand 100 ng/ml) was 0.97. The “ability of recombinant RTK ligand” value (G-361, PD184352 - 1 uM, ligand 0.4 ng/ml) was 1.04, the “ability of recombinant RTK ligand” value (G-361, PD184352 - 1 uM, ligand 1.6 ng/ml) was 1.09 and the “ability of recombinant RTK ligand” value (G-361, PD184352 - 1 uM, ligand 6.25 ng/ml) was 0.97. For the same molecule, the “ability of recombinant RTK ligand” value (G-361, PD184352 - 1 uM, ligand 25 ng/ml) was 1.01, the “ability of recombinant RTK ligand” value (G-361, PD184352 - 1 uM, ligand 100 ng/ml) was 0.89 and the “ability of recombinant RTK ligand” value (G-361, PLX4720 - 2 uM, ligand 0.4 ng/ml) was 1.00. For the same molecule, the “ability of recombinant RTK ligand” value (G-361, PLX4720 - 2 uM, ligand 1.6 ng/ml) was 0.87, the “ability of recombinant RTK ligand” value (G-361, PLX4720 - 2 uM, ligand 6.25 ng/ml) was 0.88 and the “ability of recombinant RTK ligand” value (G-361, PLX4720 - 2 uM, ligand 25 ng/ml) was 0.88. For the same molecule, the “ability of recombinant RTK ligand” value (G-361, PLX4720 - 2 uM, ligand 100 ng/ml) was 0.79, the “ability of recombinant RTK ligand” value (SK-MEL-5, PD184352 - 1 uM, ligand 0.4 ng/ml) was 0.97 and the “ability of recombinant RTK ligand” value (SK-MEL-5, PD184352 - 1 uM, ligand 1.6 ng/ml) was 0.97. The “ability of recombinant RTK ligand” value (SK-MEL-5, PD184352 - 1 uM, ligand 6.25 ng/ml) was 1.00, the “ability of recombinant RTK ligand” value (SK-MEL-5, PD184352 - 1 uM, ligand 25 ng/ml) was 0.92 and the “ability of recombinant RTK ligand” value (SK-MEL-5, PD184352 - 1 uM, ligand 100 ng/ml) was 0.90. The “ability of recombinant RTK ligand” value (SK-MEL-5, PLX4720 - 2 uM, ligand 0.4 ng/ml) was 1.07, the “ability of recombinant RTK ligand” value (SK-MEL-5, PLX4720 - 2 uM, ligand 1.6 ng/ml) was 1.07 and the “ability of recombinant RTK ligand” value (SK-MEL-5, PLX4720 - 2 uM, ligand 6.25 ng/ml) was 1.03. The “ability of recombinant RTK ligand” value (SK-MEL-5, PLX4720 - 2 uM, ligand 25 ng/ml) was 0.93, the “ability of recombinant RTK ligand” value (SK-MEL-5, PLX4720 - 2 uM, ligand 100 ng/ml) was 1.04 and the “ability of recombinant RTK ligand” value (SK-MEL-28, PD184352 - 1 uM, ligand 0.4 ng/ml) was 1.04. The “ability of recombinant RTK ligand” value (SK-MEL-28, PD184352 - 1 uM, ligand 1.6 ng/ml) was 0.95, the “ability of recombinant RTK ligand” value (SK-MEL-28, PD184352 - 1 uM, ligand 6.25 ng/ml) was 0.98 and the “ability of recombinant RTK ligand” value (SK-MEL-28, PD184352 - 1 uM, ligand 25 ng/ml) was 0.78. The “ability of recombinant RTK ligand” value (SK-MEL-28, PD184352 - 1 uM, ligand 100 ng/ml) was 0.99, the “ability of recombinant RTK ligand” value (SK-MEL-28, PLX4720 - 2 uM, ligand 0.4 ng/ml) was 0.94 and the “ability of recombinant RTK ligand” value (SK-MEL-28, PLX4720 - 2 uM, ligand 1.6 ng/ml) was 0.90. The “ability of recombinant RTK ligand” value (SK-MEL-28, PLX4720 - 2 uM, ligand 6.25 ng/ml) was 0.86, the “ability of recombinant RTK ligand” value (SK-MEL-28, PLX4720 - 2 uM, ligand 25 ng/ml) was 0.82 and the “ability of recombinant RTK ligand” value (SK-MEL-28, PLX4720 - 2 uM, ligand 100 ng/ml) was 0.98.
